# Assay results: US20250243243A1, “DISRUPTION OF SONIC HEDGEHOG-SURF4 INTERACTION FOR CANCER TREATMENT” (The Hong Kong University of Science and Technology, priority 2022, published 2025)
# Target: ShhN^1-198-HA (mouse) (UniProt Q62226)
# Experiment: anti-HA immunoprecipitation from HEK293T lysate, label-free quantitative mass spectrometry; 1 unique peptide; Control Group, IGF2 Group and Abundance Ratio not given
# ShhN^1-198-HA (mouse), sequence (Q62226 25-198): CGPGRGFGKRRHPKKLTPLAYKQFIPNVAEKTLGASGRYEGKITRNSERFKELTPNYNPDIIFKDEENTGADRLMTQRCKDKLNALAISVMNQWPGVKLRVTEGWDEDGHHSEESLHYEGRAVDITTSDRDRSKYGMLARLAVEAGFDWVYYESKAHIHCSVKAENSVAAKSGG
row,abundance in The ShhN Group,Substance
1,2060,BHMT (from UniProt Q93088) (enzyme)
2,8940,PPIB (from UniProt P23284) (enzyme)
3,45400,VPS51 (from UniProt Q9UID3)
4,19800,GRIA1 (from UniProt P42261) (receptor)
